Test results reported in PMC3037662 (The Journal of Biological Chemistry, 2010).

Tests used:
[1] = target: MtrE, His-tagged (wild type) (N. gonorrhoeae FA19) (UniProt Q51006); assay: native MS
[2] = target: MtrE, His-tagged (wild type) (N. gonorrhoeae FA19) (UniProt Q51006); assay: ITC
[3] = target: T1, MtrD, His-tagged (N. gonorrhoeae FA19, UniProt Q51073 1-1067); assay: ITC
T1 sequence (looked up): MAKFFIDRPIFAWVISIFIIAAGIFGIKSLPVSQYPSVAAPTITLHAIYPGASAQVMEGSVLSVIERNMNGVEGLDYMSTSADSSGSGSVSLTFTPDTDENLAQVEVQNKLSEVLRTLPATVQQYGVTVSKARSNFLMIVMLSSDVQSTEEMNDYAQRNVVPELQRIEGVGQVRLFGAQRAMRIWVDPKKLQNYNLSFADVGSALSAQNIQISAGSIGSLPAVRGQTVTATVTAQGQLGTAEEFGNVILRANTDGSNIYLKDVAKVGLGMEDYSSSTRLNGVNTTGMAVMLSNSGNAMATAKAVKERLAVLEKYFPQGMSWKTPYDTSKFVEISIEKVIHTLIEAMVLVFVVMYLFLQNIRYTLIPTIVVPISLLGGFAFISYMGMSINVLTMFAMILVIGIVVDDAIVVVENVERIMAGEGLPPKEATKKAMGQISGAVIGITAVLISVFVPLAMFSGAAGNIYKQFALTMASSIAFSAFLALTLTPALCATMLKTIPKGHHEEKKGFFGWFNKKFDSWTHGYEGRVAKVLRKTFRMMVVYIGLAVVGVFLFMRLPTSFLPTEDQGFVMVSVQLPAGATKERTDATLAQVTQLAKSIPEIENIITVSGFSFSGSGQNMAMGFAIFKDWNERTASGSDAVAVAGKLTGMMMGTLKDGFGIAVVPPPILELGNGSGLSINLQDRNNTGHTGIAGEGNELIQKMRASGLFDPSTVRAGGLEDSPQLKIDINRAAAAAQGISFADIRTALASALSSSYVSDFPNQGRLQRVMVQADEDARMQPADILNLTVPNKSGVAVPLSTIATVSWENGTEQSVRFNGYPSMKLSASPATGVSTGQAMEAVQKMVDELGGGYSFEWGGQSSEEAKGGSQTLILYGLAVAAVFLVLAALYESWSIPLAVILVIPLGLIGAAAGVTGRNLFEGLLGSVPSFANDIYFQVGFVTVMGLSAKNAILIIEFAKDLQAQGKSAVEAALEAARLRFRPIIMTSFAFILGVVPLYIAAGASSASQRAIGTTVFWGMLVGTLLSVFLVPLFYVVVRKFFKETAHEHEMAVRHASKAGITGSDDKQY

[4] = target: MtrE E434K, His-tagged (N. gonorrhoeae FA19) (UniProt Q51006); assay: ITC

MtrE, His-tagged (wild type) (from UniProt Q51006 1-467) (natural protein)
stoichiometry N [1]: 3

B1: NT-MtrC, N-terminal-truncated (Δ1–34) MtrC, His-tagged (domain or fragment, N. gonorrhoeae FA19, UniProt P43505 35-412, looked up)
chain: GQPAGREAPAPVVGVVTVHPQTVALTVELPGRLESLRTADVRAQVGGIIQKRLFQEGSYVRAGQPLYQIDSSTYEAGLESARAQLATAQATLAKADADLARYKPLVSADAISKQEYDAAVTAKRSAEASVKAAQAAIKSAGINLNRSRITAPISGFIGQSKVSEGTLLNAGDTTVLATIRQTNPMYVNVTQSASEVMKLRRQIAEGKLLAADGAIAVGIKFDDGTVYPEKGRLLFADPTVDESTGQITLRAAVSNDQNILMPGLYVRVLMDQVAADNAFIVPQQAVTRGAKDTVMIVNAQGGMEPREVTVAQQQGTNWIVTSGLKDGDKVVVEGISIAGMTGAKKVTPKEWAPSENQAAAPQAGVQTASEAKPASEAK
Kd [2]: 9.8 µM
dH [2]: -6840 cal/mol
Ka [3]: 1.2e+06 M⁻¹
Kd [3]: 800 ± 700 nM
dH [3]: 1410 ± 318 cal/mol

B2: MtrC α-helical coiled-coil hairpin domain (residues 103–183), His-tagged (domain or fragment)
chain: IDSSTYEAGLESARAQLATAQATLAKADADLARYKPLVSADAISKQEYDAAVTAKRSAEASVKAAQAAIKSAGINLNRSRI
Ka [4]: 8.2e+06 M⁻¹
Kd [4]: 130 nM
dH [4]: -4120 cal/mol
Ka1 (site 1 of a two-site fit) [2]: 460000 M⁻¹
Ka2 (site 2 of a two-site fit) [2]: 3200 M⁻¹
Kd of the first (high-affinity) site of a two-site fit [2]: 2.2 µM
dH1 (site 1 of a two-site fit) [2]: -12000 cal/mol
dH2 (site 2 of a two-site fit) [2]: -62000 cal/mol
dH of the first site of a two-site fit [2]: -11 kcal/mol
